Data from the supplement of paper PMC12764529.
± gives the half width of the 95% confidence interval.

What was measured:
[1] = folding stability dG unfold from trypsin proteolysis; higher = more stable
Method in brief: (§1)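 Unfolding free energy was derived, per protease or combined, by relating Bayesian-fitted K50 values from sequencing counts to a sequence-predicted unfolded-state K50 and a shared folded-state K50. The underlying digests exposed cysteine-free mini-proteins under 80 residues, in a PA-tagged cDNA display construct, to trypsin and chymotrypsin at 11 threefold-diluted concentrations and to a no-protease condition. A filter kept only designs with AlphaFold2 dimer inter-PAE above 15.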

[2] = folding stability dG unfold from chymotrypsin proteolysis; higher = more stable
Method in brief: as §1

[3] = folding stability dG unfold (combined trypsin and chymotrypsin); higher = more stable
Method in brief: as §1

| Sequence | folding stability dG unfold [1] | folding stability dG unfold [2] | folding stability dG unfold [3] |
| --- | --- | --- | --- |
| SAGMEEKLVEAVFEEGPLEEAVEFIRDFLESEGYEVEPLEVEVLSVEETEEGPRVRVRARVLVRPPDASAGG [r19_325_TrMRF] | 1.11 ± 0.081 kcal/mol | 1.52 ± 0.16 kcal/mol | 1.34 ± 0.18 kcal/mol |
| SAGMEELAKELAEKLAEELPPGWKIVEIKVERLEDGTLRVRITIYRLDENGKLVEKREIEIEIPLEELSAGG [r19_28_TrROS_Hall] | 3.91 ± 0.22 kcal/mol | 4.63 ± 0.081 kcal/mol | 4.5 ± 0.15 kcal/mol |
| SAGMEEVEITIKITIEVPEGEEVTPEELAEALREAGFEIVEVKVEKTEDGRKRVTVEIKIRLTPEELEKSAG [r5_167_TrROS_Hall] | 2.31 ± 0.2 kcal/mol | 2.02 ± 0.15 kcal/mol | 2.23 ± 0.19 kcal/mol |
| SAGMEFPANTTVELTLTLTFPVPLPGEGTGPVTLTYTLRLEVRPKPRIPLPDPALRELLERLGLSPDLLSAG [r5_624_TrMRF] | 3.88 ± 0.39 kcal/mol | 4.88 ± 0.13 kcal/mol | 4.43 ± 0.4 kcal/mol |
| SAGMEKKTFTFPTRTVLVVRGPDGTVLVVVDDPDGDPEVLTPDGTPVPYVDLPNGQRLYRFPAALFEKVSAG [r5_457_TrMRF] | 2.1 ± 0.035 kcal/mol | 3.182 ± 0.023 kcal/mol | 2.88 ± 0.063 kcal/mol |
| SAGMEVEYTLTFELPGGLALRVTAKVRFNPETNELEVLELKVELLPLPPAPPPFISPEEAEKNGLLPEESAG [r5_393_TrMRF] | 3.81 ± 0.28 kcal/mol | 4.44 ± 0.27 kcal/mol | 4.5 ± 0.35 kcal/mol |
| SAGMEVKITVEREEDGTLRITITVRPDMTPEELAALLEEELGLEVRVVRDEETGERVLEIEIPLPEELESAG [r5_742_TrROS_Hall] | 2.64 ± 0.12 kcal/mol | 2.16 ± 0.072 kcal/mol | 2.39 ± 0.11 kcal/mol |
| SAGMEYLEVKVTIEPKLPEELREKLKGKKVTVTIIVPKEMSEEEKKKLLEELRDLGVKKVEIKSLEELKSAG [r5_60_TrROS_Hall] | 1.65 ± 0.085 kcal/mol | 1.93 ± 0.077 kcal/mol | 1.89 ± 0.11 kcal/mol |
| SAGMGEAELAAARAANPDRPLVPVETYEIPLPPDVSLEEVEKELREKYPPGKVKVTADPATGTVTITISSAG [r5_694_JUSTAS] | -0.221 ± 0.14 kcal/mol | 0.969 ± 0.04 kcal/mol | 0.684 ± 0.15 kcal/mol |
| SAGMGLVGRTKDGKWIPAADLTEEQLKDMELDLGEPLPPVVVKVEVEWKLSPEDKLEVKLKVEVFVEGSAGG [r19_232_TrMRF] | 1.02 ± 0.15 kcal/mol | 2.87 ± 0.07 kcal/mol | 2.17 ± 0.2 kcal/mol |
| SAGMGPNEVKPIEIEFEVYETGEGEPYLVGKAIAKLYVDPVEGTVRLEIKDPEKPEPFITFEFPVEEISAGG [r19_413_TrMRF] | 1.38 ± 0.039 kcal/mol | 2.22 ± 0.037 kcal/mol | 1.94 ± 0.065 kcal/mol |
| SAGMGVSTFPVEIVTKPDDITEEELKKRAIERLKKLFPGVKLKEVKFDIPVRELPGDEIVITMNITVNVSAG [r14_145_JUSTAS] | 1.57 ± 0.068 kcal/mol | 1.01 ± 0.035 kcal/mol | 1.33 ± 0.056 kcal/mol |
| SAGMIDYIEIKPEKLPNGKYKVTITIYDSSTGTTTTYEKEMTPEEAKELAEKIKESNPDKPVKFGNLESAGG [r19_317_JUSTAS] | 2.06 ± 0.093 kcal/mol | 1.78 ± 0.089 kcal/mol | 1.93 ± 0.2 kcal/mol |
| SAGMIEIKSEDGSTFRIEFDKETGEVKVEYDKNTGVVKVTLPDGKEVEIEIEGMSLEEVLKKLEELLKKSAG [r5_447_TrROS_Hall] | 2.01 ± 0.19 kcal/mol | 1.78 ± 0.13 kcal/mol | 1.94 ± 0.22 kcal/mol |
| SAGMIEKLIREAFPAGAKSIRIEVRRLPDGSLLVRIDIHFDDPEVRRALADRIEELLGLPIPDLRVSPDSAG [r5_542_TrMRF] | 2.26 ± 0.035 kcal/mol | 3.067 ± 0.028 kcal/mol | 2.81 ± 0.042 kcal/mol |
| SAGMIKITIITENGEEITIEIPENMSEEELKELAEKIAKEIAKKLNIPKVKIKKIKIEKIELTPEQIKKSAG [r5_377_TrROS_Hall] | 0.887 ± 0.077 kcal/mol | 1.97 ± 0.098 kcal/mol | 1.89 ± 0.36 kcal/mol |
| SAGMIVTVLSKEVDPATGSTTTYSVSTDPETGETFLYTTTTTGDTVTTTRTVFFPGTGTTSTSTTTTSASAG [r5_150_JUSTAS] | 2.17 ± 0.056 kcal/mol | 3.019 ± 0.017 kcal/mol | 2.73 ± 0.046 kcal/mol |
| SAGMKEGEVEKVEVEVEITIEVYNENGEKVKTFKAKVKVEVVRNENGELYVKAEIEFEDGTKFEFVVKLSAG [r5_580_TrROS_Hall] | 2.96 ± 0.35 kcal/mol | 3.71 ± 0.09 kcal/mol | 3.81 ± 0.54 kcal/mol |
| SAGMKEKAIDALKEFFEEEGIKVKKIVIEEKPDGTYKITVYGENGKPIFEIEVPKDVKTSEELKKLIKKSAG [r5_352_TrMRF] | 2.71 ± 0.52 kcal/mol | 3.67 ± 0.12 kcal/mol | 3.61 ± 0.3 kcal/mol |
| SAGMKETLKVKIKVKLSEEQREKLKKALEELGATVEVDEETGEVTVEVSAEQVEALKKIPGVEEIEVESAGG [r19_212_TrROS_Hall] | 3.22 ± 0.18 kcal/mol | 2.61 ± 0.24 kcal/mol | 2.76 ± 0.14 kcal/mol |
| SAGMKIEEKDGYLVITFKTKEEAEEAAKKLKELFPDAEIVEIKVEKDENGNETVTIVIKLKNLSPEALKSAG [r5_857_TrROS_Hall] | 1.53 ± 0.077 kcal/mol | 2.04 ± 0.12 kcal/mol | 1.85 ± 0.23 kcal/mol |

| Sequence | folding stability dG unfold [1] | folding stability dG unfold [2] | folding stability dG unfold [3] |
| --- | --- | --- | --- |
| SAGMKIEIEIVKVEVKEVNGKKVIKVEIKVKVSAEELGLSEEELKEKLEEEVEELARELAEKLNVEVVPSAG [r5_333_TrROS_Hall] | 2.88 ± 0.36 kcal/mol | 1.36 ± 0.1 kcal/mol | 2.21 ± 0.51 kcal/mol |
| SAGMKIENAEITEIKVTVNEDGTVTVEMTVRLKNGYVVKVTMTFKNGKLEIKPEKVEVYKVKLPEEELSAGG [r19_84_TrROS_Hall] | 1.68 ± 0.098 kcal/mol | 2.28 ± 0.22 kcal/mol | 2.09 ± 0.41 kcal/mol |
| SAGMKIEPTKDYVLITVNGPEKALETIKKLKELIPNPEILDIKPHPHPNGENPWTIIIPTKNIPPEVLFSAG [r5_857_TrMRF] | 0.655 ± 0.042 kcal/mol | 0.519 ± 0.14 kcal/mol | 0.68 ± 0.15 kcal/mol |
| SAGMKIETIPEVDYVVIEIDAKSLEEAIETLKYLTEKLGLKKVIAVADPTSNKVIAIAEVGNPEALEKLSAG [r5_598_TrMRF] | 2.33 ± 0.07 kcal/mol | 1.56 ± 0.057 kcal/mol | 1.96 ± 0.1 kcal/mol |
| SAGMKIEVKKKKDGKLEVEIEVKTKDGRTIRVKIYYDKKTKKFYIVEIEAESEEEKKKAEELLKKLLKSSAG [r5_266_TrROS_Hall] | 2.83 ± 0.14 kcal/mol | 3.62 ± 0.045 kcal/mol | 3.42 ± 0.12 kcal/mol |
| SAGMKIKIKLENGEEIEIDKENPVIKIKNKETGEEVELVFDPENEDEIYIFNKKTKKLIAKFKITEIEPSAG [r5_761_TrROS_Hall] | 1.87 ± 0.092 kcal/mol | 3.21 ± 0.084 kcal/mol | 2.62 ± 0.34 kcal/mol |
| SAGMKIKVLLVVKADPEELEKLEEILEKIKEESDIKKIEPLAYFPNTGIAVVLVEADPEAFEKILEAAGSAG [r5_193_TrMRF] | 1.78 ± 0.032 kcal/mol | 2.58 ± 0.03 kcal/mol | 2.29 ± 0.095 kcal/mol |
| SAGMKIVVTLPDGWTATSDPSTGLITITDPKTGEPLLGKIPSSEPNKVTLYDPNNGKPLRELDIDEVEGSAG [r5_761_JUSTAS] | 0.287 ± 0.026 kcal/mol | 0.748 ± 0.023 kcal/mol | 0.581 ± 0.053 kcal/mol |
| SAGMKKGDKFTVEFDLDPETRAEVEALLAAPGFAAEFDPSTGRLTLTLPSEIIDEVKKFPHIKKITKISAGG [r19_212_JUSTAS] | 1.05 ± 0.068 kcal/mol | 1.79 ± 0.044 kcal/mol | 1.68 ± 0.083 kcal/mol |
| SAGMKKKLYSGEIKEIEEALEKGLSLEEIEEIFSKGANGSLELEEENKKIYIFALEDKKAFLLVEYNPESAG [r5_343_TrMRF] | 0.441 ± 0.14 kcal/mol | 1.46 ± 0.19 kcal/mol | 1.1 ± 0.26 kcal/mol |
| SAGMKPGETITIENLPEGAIIYNKNGEKVEKVKEVKVTVEDGKITIEVKLEDGSTKTFTVPLEDLKIVPSAG [r5_850_TrROS_Hall] | 1.61 ± 0.12 kcal/mol | 3.05 ± 0.058 kcal/mol | 2.31 ± 0.14 kcal/mol |
| SAGMKVIIGKNKIYVLVKLPNGEKKLFEIDIENIEKIKKIEIDIGKGYAKIGSKDNIPIYTKIKKVYNVSAG [r5_388_TrMRF] | 2.2 ± 0.058 kcal/mol | 2.82 ± 0.11 kcal/mol | 2.6 ± 0.14 kcal/mol |
| SAGMKVIKVKGEEELEKALREEAEKKGLSEEEMKEFIEEAKKRTKIEKEGDEYYVTIEPEGKPVPGNKLSAG [r5_717_JUSTAS] | 1.04 ± 0.088 kcal/mol | -0.879 ± 0.52 kcal/mol | 0.474 ± 0.37 kcal/mol |
| SAGMKVLKFKSKEELLEAIDKSPEPVLVINKKTGKKEVLSKEELKKKLKPGDEIEIVLLKDLSPEELKKSAG [r5_677_TrROS_Hall] | 1.05 ± 0.097 kcal/mol | 1.78 ± 0.14 kcal/mol | 1.4 ± 0.14 kcal/mol |
| SAGMKYRIVIENENGEKIEFEKLEDGTIKMTIEKDGKKEEITIKVPPGMTIEELLKKFPNAKIVKIEKVSAG [r5_259_TrROS_Hall] | 2.78 ± 0.069 kcal/mol | 3.45 ± 0.065 kcal/mol | 3.23 ± 0.096 kcal/mol |
| SAGMLGEEAIKDVKLELKEAPENEELVFEDTFPVGDKIARIRIVLKLPKNGGYEIKDIPIEVMAPEEAESAG [r5_96_TrMRF] | -0.469 ± 0.27 kcal/mol | -0.177 ± 0.42 kcal/mol | < -1 kcal/mol |
| SAGMLPPEETVTLTLTFPASSPLSLEEILARTPDVEVLSLKREALPDDTVRLTITVRPDHVARVRAALASAG [r5_554_JUSTAS] | 3.37 ± 0.054 kcal/mol | 4.63 ± 0.06 kcal/mol | 4.32 ± 0.09 kcal/mol |
| SAGMMKRIVVTARFPADEMTLDEFVELILAKLPGVKPVRVEILSVRPRPDGSYEVTVLLLVEAPPDVDASAG [r5_682_TrMRF] | 4.38 ± 0.071 kcal/mol | 4.216 ± 0.032 kcal/mol | 4.23 ± 0.048 kcal/mol |
| SAGMMPLSHPEAREKAIEFAKKGYLVYVIEFENGESQVIVLESEEEIEELIKELPKPIKKIYVIPPLPESAG [r5_481_TrMRF] | 2.11 ± 0.054 kcal/mol | 3.054 ± 0.017 kcal/mol | 2.79 ± 0.089 kcal/mol |
| SAGMMVVVELTVGFEPDEIEPEEIREAIEEHAAEVEIDPNPETDILPIRVIAEPGKIEAIVDALKEAGGSAG [r5_378_TrMRF] | 1.08 ± 0.069 kcal/mol | 0.0668 ± 0.19 kcal/mol | 0.671 ± 0.22 kcal/mol |
| SAGMNKIYRLNEPVKNITFSSSELENLFKDPNIDRIAVFHPDKPAIIPFPDGKISGEFPPNITIVLFGSAGG [r19_152_TrMRF] | 0.661 ± 0.15 kcal/mol | -0.0733 ± 0.5 kcal/mol | 0.385 ± 0.2 kcal/mol |
